Results published in patent publication US20040247566A1.

Target: human IL-9 receptor (human) (UniProt Q01113)
Assay: cell-based or functional assay

UniProt Q01113, sequence (Q01113 41-521, chain 1 of 2): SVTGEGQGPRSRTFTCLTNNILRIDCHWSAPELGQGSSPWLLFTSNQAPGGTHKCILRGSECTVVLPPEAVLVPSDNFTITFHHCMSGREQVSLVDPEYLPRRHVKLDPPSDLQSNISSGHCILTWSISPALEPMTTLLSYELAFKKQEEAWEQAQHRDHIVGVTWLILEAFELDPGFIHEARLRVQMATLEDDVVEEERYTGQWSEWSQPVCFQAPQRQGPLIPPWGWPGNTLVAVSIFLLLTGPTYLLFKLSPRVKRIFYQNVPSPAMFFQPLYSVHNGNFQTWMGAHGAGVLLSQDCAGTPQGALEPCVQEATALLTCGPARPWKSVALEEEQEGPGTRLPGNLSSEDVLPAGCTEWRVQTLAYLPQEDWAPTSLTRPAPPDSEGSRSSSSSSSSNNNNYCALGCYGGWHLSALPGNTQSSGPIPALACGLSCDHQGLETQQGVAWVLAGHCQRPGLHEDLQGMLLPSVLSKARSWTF
UniProt Q01113, sequence (P31785 23-369, chain 2 of 2, further chain): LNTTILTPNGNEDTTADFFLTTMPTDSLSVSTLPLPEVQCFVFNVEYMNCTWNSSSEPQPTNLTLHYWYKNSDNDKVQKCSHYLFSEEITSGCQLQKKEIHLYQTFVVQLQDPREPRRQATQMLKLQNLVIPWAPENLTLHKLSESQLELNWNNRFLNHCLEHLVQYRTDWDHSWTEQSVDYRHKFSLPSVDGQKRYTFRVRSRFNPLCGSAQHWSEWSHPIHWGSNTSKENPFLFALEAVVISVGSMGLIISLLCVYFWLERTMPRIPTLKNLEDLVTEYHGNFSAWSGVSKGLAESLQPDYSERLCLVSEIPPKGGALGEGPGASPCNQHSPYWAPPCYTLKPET

Substance	IC50, antagonism of IL-9-mediated eosinophil survival (7.14 nM wild-type IL-9)	IC50, antagonism of IL-9 mediated Mo7e proliferation (0.357 nM wild-type IL-9)
Carboxy-terminal Fc-fusion construct of the K126E/Q133K IL-9 mutein (Fc fusion)	4.92 nM	0.66 nM
Amino-terminal Fc-fusion construct of the K126E/Q133K IL-9 mutein (Fc fusion)	25.5 nM	1.15 nM
